Test results: patent US7470668B2, “Method of use of specific natriuretic peptide receptor c ligands, transgenic non-human mammals expressing specific natriuretic peptide receptor c antagonists and cells thereof” (Enobia Pharma Inc., priority 2005, dated 2008)

Key:
[1] = system: OVX rat; experiment: Aged rat ovariectomy osteoporosis model, femoral BMD; assay type: in vivo; conditions: daily sub-cutaneous injections for 4 weeks, started 4 weeks post-OVX
Text: The most widely used non-primate model for pre-clinical osteoporosis studies is the aged rat ovariectomy model (OVX rat). In this model, rapid trabecular bone loss occurs within the first month after ovariectomy (OVX) with an upregulation of both osteoblast and osteoclast activity resulting in increased bone turnover. However, similar to osteoporosis, the levels of osteoclast activity exceed those of osteoblast activity resulting in an imbalance in remodelling and consequently bone loss. […]
Thus, for the testing of potential therapeutic compounds in such a model one has two choices of approach. […] Efficacy can then be measured by assessing the ability of the compound to replace already lost bone. […]
The second approach was adopted to allow the Ostn's therapeutic potential through both anabolic and anti-resorptive efficacies to be assessed. […] Rats were left for a 4-week period following ovariectomy or sham-operation for bone loss to occur and at this point bone loss was assessed by X-ray and DEXA before proceeding with the experiment (groups 1+2). […]
FIG. 10 represents the femoral BMD (i.e. The amount of mineralized bone tissue in a given area, usually calculated as grams per square centimeter) as measured by Piximus™ on excised femurs fixed in 70% ethanol. […]

[2] = target: T1, rat GC-A (Rattus norvegicus, UniProt P18910); experiment: Intracellular cGMP in GC-A transfected HEK293 cells; assay type: cell-based; conditions: 10 nM peptide, 15 min
T1 construct: expressed in transfected cells; host or cells: HEK293, transient, CMV-driven pBK plasmid (gift of Dr. A. De Léan)
T1 sequence (P18910 29-1057): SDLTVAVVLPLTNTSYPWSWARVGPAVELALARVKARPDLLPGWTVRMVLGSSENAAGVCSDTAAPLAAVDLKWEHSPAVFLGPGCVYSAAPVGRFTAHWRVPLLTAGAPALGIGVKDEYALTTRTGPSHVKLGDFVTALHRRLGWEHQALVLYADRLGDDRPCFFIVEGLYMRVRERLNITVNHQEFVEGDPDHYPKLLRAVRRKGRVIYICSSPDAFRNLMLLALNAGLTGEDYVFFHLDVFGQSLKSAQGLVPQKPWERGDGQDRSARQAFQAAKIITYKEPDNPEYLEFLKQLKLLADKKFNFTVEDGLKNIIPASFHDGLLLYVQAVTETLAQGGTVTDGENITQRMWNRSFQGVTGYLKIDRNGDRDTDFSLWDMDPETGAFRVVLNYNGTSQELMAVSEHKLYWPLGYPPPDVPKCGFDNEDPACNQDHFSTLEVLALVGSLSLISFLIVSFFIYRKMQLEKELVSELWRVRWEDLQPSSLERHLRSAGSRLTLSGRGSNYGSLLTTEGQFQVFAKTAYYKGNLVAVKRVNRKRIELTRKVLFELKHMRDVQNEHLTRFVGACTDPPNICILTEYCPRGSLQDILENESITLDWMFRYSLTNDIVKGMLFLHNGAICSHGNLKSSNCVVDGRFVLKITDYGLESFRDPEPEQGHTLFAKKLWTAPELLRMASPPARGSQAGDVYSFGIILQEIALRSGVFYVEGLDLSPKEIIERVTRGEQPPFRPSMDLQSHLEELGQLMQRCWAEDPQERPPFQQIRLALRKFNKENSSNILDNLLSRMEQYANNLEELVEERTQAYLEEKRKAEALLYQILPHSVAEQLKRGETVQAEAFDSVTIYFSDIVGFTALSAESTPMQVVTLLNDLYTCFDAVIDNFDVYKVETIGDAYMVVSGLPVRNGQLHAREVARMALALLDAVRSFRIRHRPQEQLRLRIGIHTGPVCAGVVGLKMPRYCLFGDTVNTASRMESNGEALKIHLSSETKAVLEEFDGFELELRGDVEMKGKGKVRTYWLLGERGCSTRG

B1: rhOstn[27-133]: N-terminal 6 histidine-tagged recombinant human Ostn amino acids 27-133 produced in E.coli, SEQ ID NO: 57 (protein)
chain: SVDVTTTEAFDSGVIDVQSTPTVREEKSATDLTAKLLLLDELVSLENDVIETKKKRSFSGFGSPLDRLSAGSVDHKGKQRKVVDHPKRRFGIPMDRIGRNRLSNSRG
modifications: N-terminal His6 tag; recombinant mature osteocrin
[1]
  gain in femoral BMD over OVX-saline or OVX-mock treated rats: 6%
[2]
  intracellular cGMP response via GC-A: failed to activate
